Measurements as given in paper PMC10120035, “HY5 functions as a systemic signal by integrating BRC1-dependent hormone signaling in tomato bud outgrowth”.
Changes are numbered by the printed parent chain.

B1: LOG4-A WT (dsDNA)
DNA 1: AGTAATCCTATTAGAAAAATGGGCCATGGACCTTGCCTTACCTAC
DNA 2: GTAGGTAAGGCAAGGTCCATGGCCCATTTTTCTAATAGGATTACT
B2: LOG4-A mut (dsDNA)
DNA 1: B1 DNA 1 with G21A, G22A, G23A, C24A, C25A
DNA 2: B1 DNA 2 with G21T, G22T, C23T, C24T, C25T
B3: GA2ox5-A WT (dsDNA)
DNA 1: CAATTGTTTTGTGGGGAAAGGGTGCCCTTTCTTTTTTATTCCAA
DNA 2: TTGGAATAAAAAAGAAAGGGCACCCTTTCCCCACAAAACAATTG
B4: GA2ox5-A mut (dsDNA)
DNA 1: B3 DNA 1 with G21A, G22A, C25A, C26A
DNA 2: B3 DNA 2 with G19T, G20T, C23T, C24T
B5: CKX7-A WT (dsDNA)
DNA 1: CCCCGACATCTAAAGAGTGGGCCCAAATATCAGATAAATCAAGAACA
DNA 2: TGTTCTTGATTTATCTGATATTTGGGCCCACTCTTTAGATGTCGGGG
B6: CKX7-A mut (dsDNA)
DNA 1: B5 DNA 1 with G19A, G20A, G21A, C23A, C24A
DNA 2: B5 DNA 2 with G24T, G25T, C27T, C28T, C29T
B7: GA2ox4-B WT (dsDNA)
DNA 1: TCCCAAATTTTCGAATTATTAGGGGACCATTTTTTTTAAAAAAA
DNA 2: TTTTTTTAAAAAAAATGGTCCCCTAATAATTCGAAAATTTGGGA
B8: GA2ox4-B mut (dsDNA)
DNA 1: B7 DNA 1 with G23A, G24A, G25A, C27A, C28A
DNA 2: B7 DNA 2 with G17T, G18T, C20T, C21T, C22T

Target: BRC1 (His-BRC1) (Solanum lycopersicum (tomato), UniProt A0A3Q7HTP5 1-406)
Assay: EMSA; Light Shift Chemiluminescent EMSA kit (Thermo 20148) per manufacturer; buffer, salt, pH and temperature not stated
Settings: protein: recombinant; tags: His (pET-32a); chain copies: 2; label: 3' biotin (probe); blunt

Chain of BRC1 (His-BRC1) (A0A3Q7HTP5 entry or part of it): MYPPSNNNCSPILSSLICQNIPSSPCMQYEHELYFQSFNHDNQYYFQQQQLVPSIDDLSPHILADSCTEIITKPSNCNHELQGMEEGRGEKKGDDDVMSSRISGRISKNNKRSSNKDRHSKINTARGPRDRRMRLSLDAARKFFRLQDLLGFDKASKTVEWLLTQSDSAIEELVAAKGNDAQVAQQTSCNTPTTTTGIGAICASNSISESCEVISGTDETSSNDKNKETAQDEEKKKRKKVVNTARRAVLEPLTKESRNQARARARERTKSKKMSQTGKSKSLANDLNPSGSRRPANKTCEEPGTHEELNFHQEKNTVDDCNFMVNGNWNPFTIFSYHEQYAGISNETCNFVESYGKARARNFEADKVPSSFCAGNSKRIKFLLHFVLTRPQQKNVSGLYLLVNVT

Binder	binding result
B1	binds
B2	no binding
B3	binds
B4	no binding
B5	binds
B6	no binding
B7	binds
B8	no binding
